Results reported in US10689628B2, “Method of making variant LovD polypeptides” (THE REGENTS OF THE UNIVERSITY OF CALIFORNIA, priority 2009, dated 2020).
Where a chain is given by its changes, count along the chain named. In names and notes the source's numbering stands. Several values for one entry are separate records, joined by “and”; a condition that tells them apart may be missing. Equal values may be shown once. Entries after “also recorded” stand apart in the source; their conditions may differ.

What was measured:
LovD [1] = biological target: T1, LovD (Aspergillus terreus, UniProt Q9Y7D1); conditions: cited from earlier work; for substrate quality for LovD (in words): WO 2007/139871, acyl-CoA substrates; for apparent kcat: WO 2007/139871, acyl donor with LovD and monacolin J; for conversion / acylation of monacolin J with acyl-CoA: WO 2007/139871: 1 mM monacolin J, 4 mM acyl-CoA, 10 uM LovD, 10 hours
T1 construct: made in house; host or cells: E. coli BL21(DE3)/pAW31

LovD [2] = biological target: T1, LovD; experiment: Initial velocities of thioester substrates with pure LovD; type: biochemical; conditions: 1 mM MJ, 4 mM thioester substrate, 10 uM pure LovD, 50 mM HEPES, pH 7.9
E. coli YT2 [3] = experiment: Whole-cell biocatalysis, MJ acid and DMB-S-MMP to simvastatin acid (Example 1); conditions: for time to convert 15 mM MJ acid into simvastatin acid: whole cell, culture concentrated 10 times, 18 mM DMB-S-MMP; for whole cell activity compared to the wild type (in words): 8 hours conversion, alanine scanning mutants
Description: Whole cell biocatalytic activities based on the conversion from MJ acid and DMB-S-MMP (gray column) and soluble protein expression level comparison between the wild type LovD and the mutants (black column). For the whole cell activity, the LB culture was concentrated 10 times to mimic high density fermentation, 15 mM MJ acid and 18 mM DMB-S-MMP were used to compare the conversion. The conversion based on 8 hours was used to compare the whole cell activity between the wild type LovD and the mutants. The wild type LovD conversion was normalized to 100%, the data points are averaged values of two runs.
The LovD wild type and all mutants were cultured side-by-side for comparison. A single colony of the freshly transformed strains was used to inoculate a 5 ml LB culture supplemented with 35 mg/L kan and grown overnight at 37° C. The next morning, 100 μl of the overnight culture (0.2%) was inoculated into 50 ml LB medium with Kan. When OD600 reached 0.4˜0.6, 0.1 mM IPTG was added to the culture and expression of LovD was performed at 20° C. for 16 hrs. To mimic the high density fermentation conditions, the cells were concentrated 10-fold before addition of substrates. A 14 ml aliquot of the culture was collected by centrifugation (4° C., 4000 g, 10 min). The cell pellet was gently resuspended in 1330 ml of the supernatant, followed by addition of 70 ml of a MJ acid stock solution (300 mM in water) to make final concentration 15 mM. The concentrated culture was then resuspended and separated into seven 200 μl samples, 1 μl of pure DMB-S-MMP was added to each sample (final concentration ˜20 mM). The cultures were then shaken at 300 rpm at room temperature. At each time point, a total extraction was performed by adding 10 μl of 20% SDS to completely lyse the cells, followed by liquid—liquid extraction with 500 μl EA/2% TFA. The organic phase was removed, evaporated, and redissolved in 500 μl ACN for HPLC analysis.
We then tested the in vivo activity of the nine mutants in comparison to the wild type LovD. Both the mutants and the wild type LovD strains were grown in LB media, expressed and concentrated 10 times to mimic the high density fermentation after 16 hours expression at 20° C. Both MJ acid and DMB-S-MMP were added to final 15 mM and 18 mM respectively to start the reaction. At 8 hours, 100 μl sample culture was taken out to check the total conversion from MJ acid to simvastatin acid.

MJ acid and DMB-S-MMP = experiment: Kinetic assay of LovD wild type and mutants towards MJ acid and DMB-S-MMP; type: biochemical
Description: Dimethyl sulfoxide (DMSO) was added to a final concentration of 10% to facilitate the solubilization of DMB-S-MMP. To compare the turnover rate of all mutants and the wild type protein, the MJ acid concentration was set at 1 mM and the DMB-S-MMP was set at 2 mM, the protein concentration was fixed at 10 uM, after the reaction was performed at room temperature for 2 hours, the reaction was quenched by adding EA/2% TFA. The organic phase was dried and redissolved in ACN for HPLC analysis.
The concentration of DMB-S-MMP was fixed at 2 mM and MJ acid concentration was varied from 0.25 mM to 2.0 mM. […] For the rest LovD mutant proteins, we only checked the conversion of one time point.
To obtain KM values for MJA and kcat, the DMB-SMMP concentration was fixed at 2 mM, while the concentration of MJA was varied from 0.25 to 5 mM. To obtain KM values for DMB-SMMP and kcat, the MJA concentration was fixed at 2 mM, while the concentration of DMB-SMMP was varied from 0.5 to 5 mM. Dimethyl sulfoxide (DMSO) was added to a final concentration of 10% to facilitate the solubilization of DMB-SMMP. At different time points of the kinetic assay, an aliquot of the reaction mixture was removed, quenched with 1% TFA and extracted with EA containing 1% acetic acid. The organic phase was separated, dried, resolubilized by acetonitrile (ACN) and analyzed by a Beckman Gold HPLC using a reverse phase C18 column (Alltech Apollo 5μ, 150 mm×4.6 mm) and a linear gradient: 60% ACN in water (0.1% trifluoroacetic acid (TFA)) to 95% ACN in water (0.1% TFA) for 10 min, 1 mL/min. Conversion of MJA to SVA was measured by integration of the peaks at 238 nm.

[4] = Native gel / SDS-PAGE of LovD proteins (oligomer, insoluble protein); type: physicochemical; conditions: for native gel: oligomer / monomer / stability (in words): DTT fixed at 2 mM
Description: FIG. 2. (a) SDS-PAGE gel LovD protein (WT) from E. coli BL21(DE3)/pAW31; (b) native gel of LovD protein (WT) and A1-A8 respectively, DTT was fixed at 2 mM for all samples.
LovD protein was purified to homogeneity by one step Ni-NTA column (FIG. 2a). […] The disulfide bonds between the proteins are spurious for protein crystallization because the monomer and oligomer are different species (see, e.g. Nemoto et al., 2006; J Appl Physiol 100(5):1688-91). One of our purposes was to remove the intermolecular disulfide bonds. By replacing the cysteine residues with alanine, we hope the resultant LovD mutant can keep the acyl-transferase activity while breaking the intermolecular disulfide bonds. […] We reasoned that the solubility of LovD may be changed when the intermolecular disulfide bonds between wild type LovD was eliminated (see, e.g. Lindberg et al., M. 2004; Proc Natl Acad Sci USA 101(45):15893-8).
We ran the native gel of all the mutant proteins together with the wild type LovD protein (FIG. 2b).

[5] = Soluble LovD protein expression level (Ni-NTA purification, Bradford assay); conditions: purified from 50 ml LB culture, Bradford
Description: Each mutant was transformed into E. coli YT2 strain and selected by Kanamycin (Kan). The transformant was grown in 500 ml LB-Kan media at 37° C. to OD600 0.4˜0.6, then 0.1 mM IPTG was added to induce protein expression at 20° C. for 16 hours. Cells were collected by centrifugation, resuspended in 30 ml Buffer A (50 mM Tris-HCl, pH 8.0, 2 mM 2 mM EDTA), and lysed by sonication. Cell debris and insoluble proteins were removed by centrifugation (16,000 g, 4° C., 1 h). To the cleared lysate, 2 ml of Ni-NTA resin (Qiagen) was added. Each mutant was purified using a step gradient of buffer A with increasing concentration of imidazole. Pure (>95%) LovD proteins were eluted in buffer A containing 250 mM imidazole, and then buffer exchanged into buffer A without imidazole. Glycerol was added to a final concentration of 10%, the proteins were aliquoted, and flash frozen.
All nine mutants and the wild type LovD proteins were purified at the same time and under the same conditions. The proteins were purified from 50 ml LB culture. LovD was eluted in the last fraction which contains 250 mM imidazole. The concentration of the last fraction was determined by Bradford Assay using BSA as the standard.
Each expression plasmid encoding LovD mutant was transformed into E. coli BL21(DE3). The transformant was cultured in 50 mL LB medium containing 35 mg/L Kan at 37° C. to optical density (OD600) value of 0.4˜0.6. Protein expression was induced with 0.1 mM IPTG and the subsequent expression was performed at 25° C. for 16 h. Cells were collected by centrifugation (2,000 g, 4° C., 15 min), resuspended in 7 mL Buffer A (50 mM Tris-HCl, pH 8.0, 2 mM DTT, 2 mM EDTA), and lysed by sonication. Cell debris and insoluble proteins were removed by centrifugation (20,000 g, 4° C., 1 h). To the cleared cell lysate, 0.5 mL of Ni-NTA resin (Qiagen, Valencia, Calif.) was added to each sample. […] The protein concentrations were qualitatively assessed by SDS-PAGE and quantitatively determined by the Bradford protein assay using bovine serum albumin (BSA) as the standard.

E. coli YT2 [6] = experiment: Whole-cell biocatalysis activity of LovD G0 and directed-evolution mutants (SVA synthesis)
Description: Wild type LovD and all mutants were cultured in parallel for comparison. A single colony of the freshly transformed YT2 competent cells was used to inoculate a 5 mL LB culture supplemented with 35 mg/L kanamycin. Following overnight growth at 37° C., 100 μl of the culture was inoculated into 50 mL LB medium supplemented with 35 mg/L kanamycin. When OD600 reached 0.4˜0.6, 0.1 mM IPTG was added to the cultures and expression of all LovD variants was performed at 25° C. for 16 hr. To mimic the high density fermentation conditions, the cells were then concentrated 10-fold before addition of substrates. A 10 ml aliquot of each culture was collected by centrifugation (4° C., 2,000 g, 10 min). The cell pellet was gently resuspended in 1 ml of the medium supernatant, followed by addition of 70 μl of MJA (300 mM stock) to a final concentration of 15 mM. The concentrated culture was then divided into seven 200 μl aliquots and 1 μl of pure DMB-SMMP was added to each sample to a final concentration of 20 mM. The small cultures were then shaken at 300 rpm at 25° C. At each time point, a complete extraction of one culture aliquot was performed by adding 10 μl of 20% SDS for cells lysis, followed by extraction with 500 μl ethyl acetate containing 1% trifluoroacetic acid TFA. The organic phase was removed, evaporated, and redissolved in 500 μl acetonitrile for HPLC analysis. The whole-cell activity was determined by fitting the linear regions of the conversion time course plot.
Parent LovD G0 and all mutants were cultured in parallel for comparison. A single colony of the freshly transformed YT2 competent cells was used to inoculate a 5 mL LB culture supplemented with 35 mg/L kanamycin. Following overnight growth at 37° C., 100 μl of the culture was inoculated into 50 mL LB medium supplemented with 35 mg/L kanamycin. When OD600 reached 0.4˜0.6, 0.1 mM IPTG was added to the cultures and expression of all LovD variants was performed at 25° C. for 16 hr. To mimic the high density fermentation conditions, the cells were then concentrated 10-fold before addition of substrates. A 10 ml aliquot of each culture was collected by centrifugation (4° C., 2,000 g, 10 min). The cell pellet was gently resuspended in 1 ml of the medium supernatant, followed by addition of 70 μl of MJA (300 mM stock) to a final concentration of 15 mM. The concentrated culture was then divided into seven 200 μl aliquots and 1 μl of pure DMB-SMMP was added to each sample to a final concentration of 20 mM. The small cultures were then shaken at 300 rpm at 25° C. At each time point, a complete extraction of one culture aliquot was performed by adding 10 μl of 20% SDS for cells lysis, followed by extraction with 500 μl ethyl acetate containing 1% trifluoroacetic acid TFA. The organic phase was removed, evaporated, and redissolved in 500 μl acetonitrile for HPLC analysis. The whole-cell activity was determined by fitting the linear regions of the conversion time course plot.

[7] = DMB-S-MMP fixed at 2 mM, MJ acid 0.25 mM to 2.0 mM

CCCC(=O)SCCNC(=O)CCNC(=O)[C@H](O)C(C)(C)COP(=O)(O)OP(=O)(O)OC[C@H]1O[C@@H](n2cnc3c(N)ncnc32)[C@H](O)[C@@H]1OP(=O)(O)O [butyryl-CoA]
substrate quality for LovD (in words) (LovD [1]): optimal alkylacyl-CoA substrate

CCC(C)(C)C(=O)SCCNC(C)=O [DMB-S-NAC, α-dimethylbutyryl-SNAC]
Initial Velocity (ki) (LovD [2]): 0.02 min⁻¹

CCCCCCCCCCCCCCCC(=O)SCCNC(=O)CCNC(=O)[C@H](O)C(C)(C)COP(=O)(O)OP(=O)(O)OC[C@H]1O[C@@H](n2cnc3c(N)ncnc32)[C@H](O)[C@@H]1OP(=O)(O)O [palmitoyl-CoA]
substrate quality for LovD (in words) (LovD [1]): inactive

CC(C)(COP(=O)(O)OP(=O)(O)OC[C@H]1O[C@@H](n2cnc3c(N)ncnc32)[C@H](O)[C@@H]1OP(=O)(O)O)[C@@H](O)C(=O)NCCC(=O)NCCSC(=O)CC(=O)O [malonyl-CoA]
substrate quality for LovD (in words) (LovD [1]): inactive

CC[C@H](C)C(=O)SCCNC(C)=O [α-S-methylbutyryl-SNAC]
apparent kcat (LovD [1]): ~0.00067 s⁻¹

CC(O)CC(=O)SCCNC(=O)CCNC(=O)[C@H](O)C(C)(C)COP(=O)(O)OP(=O)(O)OC[C@H]1O[C@@H](n2cnc3c(N)ncnc32)[C@H](O)[C@@H]1OP(=O)(O)O (stereo partly drawn) [β-hydroxylbutyryl-CoA]
substrate quality for LovD (in words) (LovD [1]): excellent substrates

CCC(C)(C)C(=O)SCCC(=O)O [DMB-S-MPA]
Initial Velocity (ki) (LovD [2]): 0.08 min⁻¹

C/C=C/C(=O)SCCNC(=O)CCNC(=O)[C@H](O)C(C)(C)COP(=O)(O)OP(=O)(O)OC[C@H]1O[C@@H](n2cnc3c(N)ncnc32)[C@H](O)[C@@H]1OP(=O)(O)O [crotonyl-CoA]
conversion / acylation of monacolin J with acyl-CoA (LovD [1]): 6%

CCCC(=O)SCCNC(C)=O [SNAC, butyryl-SNAC]
apparent kcat (LovD [1]): 0.0015 s⁻¹

CCOC(=O)CCSC(=O)C(C)(C)CC [DMB-S-EMP, dimethylbutyryl-S-ethyl mercaptopropionate]
Initial Velocity (ki) (LovD [2]): 0.70 min⁻¹

CCC(C)(C)C(=O)SCCCC(=O)OC [DMB-S-MMB, dimethylbutyryl-S-methyl mercaptobutyrate]
Initial Velocity (ki) (LovD [2]): 0.78 min⁻¹

CC(=O)CC(=O)SCCNC(=O)CCNC(=O)[C@H](O)C(C)(C)COP(=O)(O)OP(=O)(O)OC[C@H]1O[C@@H](n2cnc3c(N)ncnc32)[C@H](O)[C@@H]1OP(=O)(O)O [Acetoacetyl-CoA]
substrate quality for LovD (in words) (LovD [1]): excellent substrates

CC(C)(COP(=O)(O)OP(=O)(O)OC[C@H]1O[C@@H](n2cnc3c(N)ncnc32)[C@H](O)[C@@H]1OP(=O)(O)O)[C@@H](O)C(=O)NCCC(=O)NCCSC(=O)c1ccccc1 [benzoyl-CoA]
apparent kcat (LovD [1]): 0.00267 s⁻¹ | conversion / acylation of monacolin J with acyl-CoA (LovD [1]): ~70%

CCC(C)(C)C(=O)SCC(=O)OC [DMB-S-MTG, dimethylbutyryl-S-methyl thioglycolate]
Initial Velocity (ki) (LovD [2]): 0.03 min⁻¹

B1: wild type LovD: A. terreus LovD acyltransferase polypeptide, SEQ ID NO: 1 (protein, listed as Aspergillus terreus)
chain: MGSIIDAAAAADPVVLMETAFRKAVKSRQIPGAVIMARDCSGNLNYTRCFGARTVRRDECNQLPPLQVDTPCRLASATKLLTTIMALQCMERGLVDLDETVDRLLPDLSAMPVLEGFDDAGNARLRERRGKITLRHLLTHTSGLSYVFLHPLLREYMAQGHLQSAEKFGIQSRLAPPAVNDPGAEWIYGANLDWAGKLVERATGLDLEQYLQENICAPLGITDMTFKLQQRPDMLARRADQTHRNSADGRLRYDDSVYFRADGEECFGGQGVFSGPGSYMKVLHSLLKRDGLLLQPQTVDLMFQPALEPRLEEQMNQHMDASPHINYGGPMPMVLRRSFGLGGIIALEDLDGENWRRKGSLTFGGGPNIVWQIDPKAGLCTLAFFQLEPWNDPVCRDLTRTFEHAIYAQYQQG
time to convert 15 mM MJ acid into simvastatin acid (E. coli YT2 [3]): 12 h | Km (MJ acid and DMB-S-MMP; [7]): 640 µM | kcat (MJ acid and DMB-S-MMP; [7]): 0.62 min⁻¹ | kcat (MJ acid and DMB-S-MMP; FIG. 1 legend, MJ acid and DMB-S-MMP to simvastatin): 0.6 min' | fraction of LovD protein forming oligomer ([4]; native gel, even at high DTT concentration): ~20% | fraction of expressed LovD protein insoluble ([4]; overexpressed in E. coli): more than 50%

B2: A1: LovD C40A mutant (protein, UniProt Q9Y7D1 1-413, looked up, variant C40A)
Monacolin J acid …: B1 chain with C40A
whole cell activity higher than the wild type (E. coli YT2 [3]; based on 8 hours conversion, wild type normalized to 100%): ~25% and 31% | solubility more than the wild type [5]: 28% | Km (MJ acid and DMB-S-MMP; [7]): 680 µM | kcat (MJ acid and DMB-S-MMP; [7]): 0.62 min⁻¹ | native gel: oligomer / monomer / stability (in words) [4]: slightly more monomers; also recorded: slightly less oligomer

B3: A2: LovD C49A mutant (protein, UniProt Q9Y7D1 1-413, looked up, variant C49A)
Monacolin J acid …: B1 chain with C49A
native gel: oligomer / monomer / stability (in words) [4]: very similar to WT

B4: A5: LovD C89A mutant (protein, UniProt Q9Y7D1 1-413, looked up, variant C89A)
Monacolin J acid …: B1 chain with C89A
native gel: oligomer / monomer / stability (in words) [4]: not very stable; also recorded: less proteins

B5: A1N3: LovD double mutant C40A/C60N, starting point (generation zero) of directed evolution (protein, UniProt Q9Y7D1 1-413, looked up, variant C40A C60N)
Monacolin J acid …: B1 chain with C40A, C60N
faster than the single mutant A1 and N3 (E. coli YT2 [3]; whole cell time course): about 20% | time to convert 15 mM MJ acid into simvastatin acid (E. coli YT2 [3]): ~8 h | whole cell SVA production rate (E. coli YT2 [6]; 25° C.): ~1.7 mM per hour | whole cell activity when expressed at 32° C. (in words) (E. coli YT2 [6]; 32° C.): did not show any activity | whole-cell conversion rate (E. coli YT2 [6]; normalized to 1 in FIG. 13): 1.7 mM/h

B6: A7: LovD C266A mutant (protein, UniProt Q9Y7D1 1-413, looked up, variant C266A)
Monacolin J acid …: B1 chain with C266A
native gel: oligomer / monomer / stability (in words) [4]: not very stable; also recorded: less proteins

B7: A9: LovD C395A mutant (protein, UniProt Q9Y7D1 1-413, looked up, variant C395A)
Monacolin J acid …: B1 chain with C395A
whole cell activity compared to the wild type (in words) (E. coli YT2 [3]): no activity | native gel: oligomer / monomer / stability (in words) [4]: no soluble proteins at all

B8: A3: LovD C60A mutant (protein, UniProt Q9Y7D1 1-413, looked up, variant C60A)
Monacolin J acid …: B1 chain with C60A
whole cell activity compared to the wild type (in words) (E. coli YT2 [3]): slightly higher activity | Km (MJ acid and DMB-S-MMP; [7]): 660 µM | kcat (MJ acid and DMB-S-MMP; [7]): 0.64 min⁻¹ | native gel: oligomer / monomer / stability (in words) [4]: almost all monomers; also recorded: eliminated most of the oligomer

B9: A6: LovD C216A mutant (protein, UniProt Q9Y7D1 1-413, looked up, variant C216A)
Monacolin J acid …: B1 chain with C216A
native gel: oligomer / monomer / stability (in words) [4]: very similar to WT

B10: A4: LovD C72A mutant (protein, UniProt Q9Y7D1 1-413, looked up, variant C72A)
Monacolin J acid …: B1 chain with C72A
native gel: oligomer / monomer / stability (in words) [4]: not very stable; also recorded: less proteins

B11: A8: LovD C380A mutant (protein, UniProt Q9Y7D1 1-413, looked up, variant C380A)
Monacolin J acid …: B1 chain with C380A
native gel: oligomer / monomer / stability (in words) [4]: very similar to WT
